Numbering of substitutions follows the chain as printed.
Key:
[1] = target: T1, Human IgA (recombinant, H (WT)-IgA1 / L (WT)) (human); assay: SPR (Biacore T200), antibody on Protein A/G, hIgA analyte, 37C; pH 7.4, 1.2 mM Ca; 1:1 binding model
T1 construct: used as the antigen (analyte); also called hIgA
Description: (§1) The hIgA-binding activities (dissociation constant KD (M)) of the antibodies isolated in (1-3) were assessed using Biacore T200 (GE Healthcare). Measurements were performed using a 0.05% tween20, 20 mmol/L ACES, 150 mmol/L NaCl (pH 7.4 or pH 5.8) solution containing 3 μM or 1.2 mM CaCl₂, or a 0.05% tween20, 20 mmol/L ACES, 150 mmol/L NaCl (pH 8.0) solution containing 0.1 μM or 10 mM CaCl₂ as a running buffer.
(§2) An appropriate amount of recombinant Protein A/G (Thermo Scientific) was immobilized onto a Sensor chip CMS (GE Healthcare) by an amino coupling method, and the antibody was allowed to bind thereto. Then, an appropriate concentration of hIgA (described in (1-1)) was injected as an analyte and allowed to interact with the antibody on the sensor chip. The measurement was carried out at 37° C. After measurement, 10 mmol/L glycine-HCl (pH 1.5) was injected to regenerate the sensor chip. From the measurement result, the dissociation constant KD (M) was calculated by curve fitting analysis and equilibrium analysis using Biacore T200 Evaluation Software (GE Healthcare).

[2] = target: T1, Human IgA (recombinant, H (WT)-IgA1 / L …); assay: SPR (Biacore T200), antibody on Protein A/G, hIgA analyte, 37C; pH 5.8, 3 µM Ca; 1:1 binding model
Description: as §1, §2

[3] = target: T1, Human IgA (recombinant, H (WT)-IgA1 / L …); assay: SPR (Biacore T200), antibody on Protein A/G, hIgA analyte, 37C; pH 5.8, 1.2 mM Ca; 1:1 binding model
Description: as §1, §2

[4] = target: T1, Human IgA (recombinant, H (WT)-IgA1 / L …); assay: SPR (Biacore T200), antibody on Protein A/G, hIgA analyte, 37C; pH 8.0, 0.1 µM Ca; 1:1 binding model
Description: as §1, §2

[5] = target: T1, Human IgA (recombinant, H (WT)-IgA1 / L …); assay: SPR (Biacore T200), antibody on Protein A/G, hIgA analyte, 37C; pH 8.0, 10 mM Ca; 1:1 binding model
Description: as §1, §2

[6] = target: T1, Human IgA (recombinant, H (WT)-IgA1 / L …); assay: SPR (Biacore T200), antibody on Protein A/G, hIgA analyte, 37C; pH 7.4, 3 µM Ca; 1:1 binding model
Description: as §1, §2

[7] = target: T1, Human IgA (recombinant, H (WT)-IgA1 / L …); assay: SPR (Biacore T200), antibody on Protein A/G, hIgA analyte, 37C; pH 7.4, 1.2 mM Ca; 1:1 binding model; pH 7.4, 1.2 mM Ca; 37 C; 1:1 binding model
Description: as §1, §2

[8] = target: T1, Human IgA (recombinant, H (WT)-IgA1 / L …); assay: SPR (Biacore T200), antibody on Protein A/G, hIgA analyte, 37C; pH 7.4, 3 µM Ca; Steady State Affinity
Description: as §1, §2

[9] = target: T1, Human IgA (recombinant, H (WT)-IgA1 / L …); assay: SPR (Biacore T200), antibody on Protein A/G, hIgA analyte, 37C; pH 5.8, 1.2 mM Ca; Steady State Affinity
Description: as §1, §2

[10] = target: T1, Human IgA (recombinant, H (WT)-IgA1 / L …); assay: SPR (Biacore T200), antibody on Protein A/G, hIgA analyte, 37C; pH 5.8, 3 µM Ca; Steady State Affinity
Description: as §1, §2

human IgA (hIgA) = target: T2, human IgA (hIgA) (human); assay: SPR (Reference Example 3)
T2 construct: recombinant antigen
Description: as §1, §2

mouse FcγRI = target: T3, mouse FcγRI (mouse, UniProt P26151 25-297, limits assumed); assay: SPR (Biacore), method of Reference Example 2
T3 construct: also called mFcγRI; mFc γ RI
T3 sequence (looked up): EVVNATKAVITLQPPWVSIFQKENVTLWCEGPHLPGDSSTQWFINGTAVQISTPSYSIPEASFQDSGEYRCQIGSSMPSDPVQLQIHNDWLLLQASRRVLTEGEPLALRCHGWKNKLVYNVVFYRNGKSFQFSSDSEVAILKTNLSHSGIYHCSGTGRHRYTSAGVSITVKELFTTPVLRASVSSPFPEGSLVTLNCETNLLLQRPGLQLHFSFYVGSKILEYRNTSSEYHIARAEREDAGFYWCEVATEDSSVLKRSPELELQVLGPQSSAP
Description: (§3) The binding activities of these antibodies to the mouse FcγRs were evaluated by the method of Reference Example 2.

mouse FcγRIV = target: T4, mouse FcγRIV (mouse, UniProt A0A0B4J1G0 21-203); assay: SPR (Biacore), method of Reference Example 2
T4 construct: also called mFcγRIV; mFc γ RIV
T4 sequence: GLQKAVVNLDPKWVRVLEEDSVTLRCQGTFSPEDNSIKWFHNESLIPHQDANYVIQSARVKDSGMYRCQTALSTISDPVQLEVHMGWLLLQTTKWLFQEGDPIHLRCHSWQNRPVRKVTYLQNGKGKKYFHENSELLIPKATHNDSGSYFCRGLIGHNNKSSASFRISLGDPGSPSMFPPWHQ
Description: as §3

[11] = target: T5, FcγRIIb extracellular domain with C-terminal His tag (human, UniProt P31994 43-217); assay: SPR; ratio of KD values, reference IL6R-G1d/IL6R-L
T5 construct: extracellular domain; also called FcgRIIb; not shown: His tag at the C terminus
T5 sequence (looked up): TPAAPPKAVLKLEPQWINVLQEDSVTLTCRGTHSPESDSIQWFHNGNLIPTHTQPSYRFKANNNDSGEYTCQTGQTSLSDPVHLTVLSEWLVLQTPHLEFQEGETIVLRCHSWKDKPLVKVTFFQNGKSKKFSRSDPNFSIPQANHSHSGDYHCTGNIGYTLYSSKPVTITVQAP

[12] = target: T6, FcγRIIa R type extracellular domain with C-terminal His tag (human, UniProt P12318 34-217); assay: SPR; ratio of KD values, reference IL6R-G1d/IL6R-L
T6 construct: extracellular domain; also called FcgRIIaR; not shown: His tag at the C terminus
T6 sequence (looked up): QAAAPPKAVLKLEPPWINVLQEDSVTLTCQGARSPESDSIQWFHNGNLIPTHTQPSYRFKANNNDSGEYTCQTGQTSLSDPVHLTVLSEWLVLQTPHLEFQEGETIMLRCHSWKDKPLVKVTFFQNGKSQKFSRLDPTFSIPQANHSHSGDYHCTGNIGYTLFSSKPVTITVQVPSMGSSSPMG

[13] = target: T7, human FcγRIIb extracellular domain with C-terminal His tag (human, UniProt P31994 43-217); assay: SPR, KD of IL6R-G1d/IL6R-L divided by KD of variant
T7 construct: extracellular domain; also called FcgRIIb
T7 sequence (looked up): T5 sequence (looked up)

[14] = target: T8, human FcγRIa extracellular domain with C-terminal His tag (human, UniProt P12314 16-292); assay: as above
T8 construct: Whole entry named; also called FcgRIa

[15] = target: T9, human FcγRIIa H type extracellular domain with C-terminal His tag (human, UniProt P12318 34-217); assay: as above
T9 construct: extracellular domain; also called FcgRIIaH
T9 sequence (looked up): T6 sequence (looked up) with R134H

[16] = target: T10, human FcγRIIIa V type extracellular domain with C-terminal His tag (human, UniProt P08637 17-208); assay: as above
T10 construct: extracellular domain; also called FcgRIIIaV

[17] = target: T11, human FcγRIIa R type extracellular domain with C-terminal His tag (human, UniProt P12318 34-217); assay: as above
T11 construct: extracellular domain; also called FcgRIIaR
T11 sequence (looked up): T6 sequence (looked up)

[18] = target: T7, human FcγRIIb extracellular domain with …; assay: SPR, antibody captured, FcgR analyte
[19] = target: T8, human FcγRIa extracellular domain with …; assay: SPR, antibody captured, FcgR analyte
[20] = target: T9, human FcγRIIa H type extracellular …; assay: SPR, antibody captured, FcgR analyte
[21] = target: T10, human FcγRIIIa V type extracellular …; assay: SPR, antibody captured, FcgR analyte
[22] = target: T11, human FcγRIIa R type extracellular …; assay: SPR, antibody captured, FcgR analyte

T1 sequence (VH, as listed by the source): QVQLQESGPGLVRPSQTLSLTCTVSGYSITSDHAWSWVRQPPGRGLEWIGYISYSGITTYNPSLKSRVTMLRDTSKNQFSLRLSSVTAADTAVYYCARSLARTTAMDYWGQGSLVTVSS
T10 sequence (P08637 17-208 F176V): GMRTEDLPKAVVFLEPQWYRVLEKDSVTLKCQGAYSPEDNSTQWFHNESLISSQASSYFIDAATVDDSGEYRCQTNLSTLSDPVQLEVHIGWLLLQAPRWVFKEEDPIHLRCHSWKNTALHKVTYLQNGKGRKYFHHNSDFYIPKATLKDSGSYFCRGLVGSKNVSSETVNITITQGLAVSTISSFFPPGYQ
T8 sequence (P12314 16-292): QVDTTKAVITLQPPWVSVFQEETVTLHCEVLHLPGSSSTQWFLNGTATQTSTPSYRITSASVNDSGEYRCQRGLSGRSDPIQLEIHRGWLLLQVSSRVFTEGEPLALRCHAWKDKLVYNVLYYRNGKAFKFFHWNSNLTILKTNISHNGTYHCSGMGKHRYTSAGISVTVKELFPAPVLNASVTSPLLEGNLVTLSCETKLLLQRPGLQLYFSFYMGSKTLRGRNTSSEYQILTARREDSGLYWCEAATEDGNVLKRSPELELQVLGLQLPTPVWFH
T2 sequence (VH, as listed by the source): as the sequence (VH, as listed by the source) above

B1: GA1-IgG1 (antibody, V domains shown)
VH: EVQLVQSGAEVKKPGSSVKVSCKASGGTFSSYAISWVRQAPGQGLEWMGGIIPIFGTANYAQKFQGRVTITADESTSTAYMELSSLRSEDTAVYYCARVAPGNWGSPYFDYWGQGTLVTVSS
VL: DIQMTQSPSSLSASVGDRVTITCRASQSIEDDLAWYQQKPGKAPKLLIYEASSLQSGVPSRFSGSGSGTDFTLTISSLQPEDFATYYCQQRDSSPLTFGQGTKVEIKR
[1]
  Kd: 150 nM
[2]
  Kd: 150 nM
[3]
  Kd: 140 nM
[4]
  Kd: 220 nM
[5]
  Kd: 100 nM
[6]
  Kd: 190 nM

B2: GA2-IgG1 (antibody, V domains shown)
VH: QVQLVQSGAEVKKPGSSVKVSCKASGGTFSSYAISWVRQAPGQGLEWMGGIIPIFGTANYAQKFQGRVTITADESTSTAYMELSSLRSEDTAVYYCARPRWETAISSDAFDIWGQGTMVTVSS
VL: B1 VL with E30S, A34N, S53N, R91H, D92S
[1]
  Kd: 39 nM
[7]
  kon: 400000 M⁻¹ s⁻¹
[8]
  Kd: 6700 nM
[9]
  Kd: 4000 nM
[10]
  Kd: 5000 nM

B3: GA2-IgG1 (antibody, V domains shown)
VH: B2 VH
VL: B1 VL with E30S, A34N, S53N, R91H, D92S
notes: also called GA-IgG1
Human IgA (hIgA)
  Ca-dependent hIgA-binding activity (fold): ≥ 100 times

B4: VH3/L (WT)-mIgG1 (antibody)
heavy: QVQLQESGPGLVKPSETLSLTCAVSGHSISHDHAWSWVRQPPGEGLEWIGFISYSGITNYNPSLQGRVTISRDNSKNTLYLQMNSLRAEDTAVYYCARSLARTTAMDYWGEGTLVTVSSAKTTPPSVYPLAPGSAAQTNSMVTLGCLVKGYFPEPVTVTWNSGSLSSGVHTFPAVLQSDLYTLSSSVTVPSSTWPSETVTCNVAHPASSTKVDKKIVPRDCGCKPCICTVPEVSSVFIFPPKPKDVLTITLTPKVTCVVVDISKDDPEVQFSWFVDDVEVHTAQTQPREEQFNSTFRSVSELPIMHQDWLNGKEFKCRVNSAAFPAPIEKTISKTKGRPKAPQVYTIPPPKEQMAKDKVSLTCMITDFFPEDITVEWQWNGQPAENYKNTQPIMDTDGSYFVYSKLNVQKSNWEAGNTFTCSVLHEGLHNHHTEKSLSHSPGK
light: not shown
notes: mouse IgG1 constant region
Mouse FcγRI
  binding result: no binding
Mouse FcγRIV
  binding result: no binding

B5: VH3/L (WT)-mIgG1-mF46 (antibody)
heavy: B4 heavy with S235D, A323D
light: not shown
Mouse FcγRI
  binding result: no binding
Mouse FcγRIV
  binding result: no binding

B6: IL6R-P587/IL6R-L (antibody, human IgG1, kappa)
heavy: QVQLQESGPGLVKPSETLSLTCAVSGHSISHDHAWSWVRQPPGEGLEWIGFISYSGITNYNPSLQGRVTISRDNSKNTLYLQMNSLRAEDTAVYYCARSLARTTAMDYWGEGTLVTVSSASTKGPSVFPLAPSSKSTSGGTAALGCLVKDYFPEPVTVSWNSGALTSGVHTFPAVLQSSGLYSLSSVVTVPSSSLGTQTYICNVNHKPSNTKVDKKVEPKSCDKTHTCPPCPAPDLLGGDSVFLFPPKPKDTLMISRTPEVTCVVIDVAEEDGEVKFNWYVDGVEVHNAKTKPREEQYNSTYRVVSVLTVLHQDWLNGKEYKCKVSNKALPAPIEKTISKAKGQPREPQVYTLPPSRDELTKNQVSLTCLVKGFYPSDIAVEWESNGQPENNYKTTPPVLDSDGSFFLYSKLTVDKSRWQQGNVFSCSVMHEALHNHYTQKSLSLSP
light: not shown
notes: human IgG1
[11]
  KD of G1d for FcgRIIb/KD of Each Variant for FcgRIIb: 256
[12]
  KD of G1d for FcgRIIaR/KD of Each Variant for FcgRIIaR: 1.4

B7: IL6R-G1dGSS/IL6R-L (antibody, human IgG1, kappa)
heavy: B6 heavy with D235E, D240P, I266V, A269S, E270H, G273P, A329G, A332S, P333S
light: not shown
[13]
  Relative FcgRIIb-binding Activity: 0.9
[14]
  Relative FcgRIa-binding Activity: 0.97
[15]
  Relative FcgRIIaH-binding Activity: 0.517
[16]
  Relative FcgRIIIaV-binding Activity: 0.231
[17]
  Relative FcgRIIaR-binding Activity: 0.79
[18]
  Kd: 2400 nM
[19]
  Kd: 0.33 nM
[20]
  Kd: 1200 nM
[21]
  Kd: 1600 nM
[22]
  Kd: 1400 nM

Source: patent publication US20220411483A1 (Chugai, published 2022)
